Earlier results in article PMC9280966 (ACS Omega, 2022).

Biological target: RHEB (Homo sapiens, UniProt Q15382)
Details: read-out: KD with RHEB (BLI); BLI analysis, earlier study; ref [12]

RHEB, sequence (Q15382 whole entry): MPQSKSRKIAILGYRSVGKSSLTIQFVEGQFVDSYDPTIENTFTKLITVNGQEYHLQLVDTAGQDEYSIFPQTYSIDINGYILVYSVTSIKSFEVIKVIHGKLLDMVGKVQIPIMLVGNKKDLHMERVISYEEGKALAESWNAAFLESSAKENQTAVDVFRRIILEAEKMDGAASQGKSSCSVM

mTOR^ΔN: N-heat domain of mTOR (aa 60–167), 6xHis tagged, ∼13 kDa
Kd: ~6.5 µM
